Biological target: Aggrecan (UniProt P13608)
Assay: solid phase binding assay (ELISA-type, HRP anti-human IgG Fc, OPD colorimetric)
Conditions: PTPσ-Fc 80 nM, wells coated with aggrecan 10 μg/ml, read off a plot

Chain of UniProt P13608 (P13608 17-2364): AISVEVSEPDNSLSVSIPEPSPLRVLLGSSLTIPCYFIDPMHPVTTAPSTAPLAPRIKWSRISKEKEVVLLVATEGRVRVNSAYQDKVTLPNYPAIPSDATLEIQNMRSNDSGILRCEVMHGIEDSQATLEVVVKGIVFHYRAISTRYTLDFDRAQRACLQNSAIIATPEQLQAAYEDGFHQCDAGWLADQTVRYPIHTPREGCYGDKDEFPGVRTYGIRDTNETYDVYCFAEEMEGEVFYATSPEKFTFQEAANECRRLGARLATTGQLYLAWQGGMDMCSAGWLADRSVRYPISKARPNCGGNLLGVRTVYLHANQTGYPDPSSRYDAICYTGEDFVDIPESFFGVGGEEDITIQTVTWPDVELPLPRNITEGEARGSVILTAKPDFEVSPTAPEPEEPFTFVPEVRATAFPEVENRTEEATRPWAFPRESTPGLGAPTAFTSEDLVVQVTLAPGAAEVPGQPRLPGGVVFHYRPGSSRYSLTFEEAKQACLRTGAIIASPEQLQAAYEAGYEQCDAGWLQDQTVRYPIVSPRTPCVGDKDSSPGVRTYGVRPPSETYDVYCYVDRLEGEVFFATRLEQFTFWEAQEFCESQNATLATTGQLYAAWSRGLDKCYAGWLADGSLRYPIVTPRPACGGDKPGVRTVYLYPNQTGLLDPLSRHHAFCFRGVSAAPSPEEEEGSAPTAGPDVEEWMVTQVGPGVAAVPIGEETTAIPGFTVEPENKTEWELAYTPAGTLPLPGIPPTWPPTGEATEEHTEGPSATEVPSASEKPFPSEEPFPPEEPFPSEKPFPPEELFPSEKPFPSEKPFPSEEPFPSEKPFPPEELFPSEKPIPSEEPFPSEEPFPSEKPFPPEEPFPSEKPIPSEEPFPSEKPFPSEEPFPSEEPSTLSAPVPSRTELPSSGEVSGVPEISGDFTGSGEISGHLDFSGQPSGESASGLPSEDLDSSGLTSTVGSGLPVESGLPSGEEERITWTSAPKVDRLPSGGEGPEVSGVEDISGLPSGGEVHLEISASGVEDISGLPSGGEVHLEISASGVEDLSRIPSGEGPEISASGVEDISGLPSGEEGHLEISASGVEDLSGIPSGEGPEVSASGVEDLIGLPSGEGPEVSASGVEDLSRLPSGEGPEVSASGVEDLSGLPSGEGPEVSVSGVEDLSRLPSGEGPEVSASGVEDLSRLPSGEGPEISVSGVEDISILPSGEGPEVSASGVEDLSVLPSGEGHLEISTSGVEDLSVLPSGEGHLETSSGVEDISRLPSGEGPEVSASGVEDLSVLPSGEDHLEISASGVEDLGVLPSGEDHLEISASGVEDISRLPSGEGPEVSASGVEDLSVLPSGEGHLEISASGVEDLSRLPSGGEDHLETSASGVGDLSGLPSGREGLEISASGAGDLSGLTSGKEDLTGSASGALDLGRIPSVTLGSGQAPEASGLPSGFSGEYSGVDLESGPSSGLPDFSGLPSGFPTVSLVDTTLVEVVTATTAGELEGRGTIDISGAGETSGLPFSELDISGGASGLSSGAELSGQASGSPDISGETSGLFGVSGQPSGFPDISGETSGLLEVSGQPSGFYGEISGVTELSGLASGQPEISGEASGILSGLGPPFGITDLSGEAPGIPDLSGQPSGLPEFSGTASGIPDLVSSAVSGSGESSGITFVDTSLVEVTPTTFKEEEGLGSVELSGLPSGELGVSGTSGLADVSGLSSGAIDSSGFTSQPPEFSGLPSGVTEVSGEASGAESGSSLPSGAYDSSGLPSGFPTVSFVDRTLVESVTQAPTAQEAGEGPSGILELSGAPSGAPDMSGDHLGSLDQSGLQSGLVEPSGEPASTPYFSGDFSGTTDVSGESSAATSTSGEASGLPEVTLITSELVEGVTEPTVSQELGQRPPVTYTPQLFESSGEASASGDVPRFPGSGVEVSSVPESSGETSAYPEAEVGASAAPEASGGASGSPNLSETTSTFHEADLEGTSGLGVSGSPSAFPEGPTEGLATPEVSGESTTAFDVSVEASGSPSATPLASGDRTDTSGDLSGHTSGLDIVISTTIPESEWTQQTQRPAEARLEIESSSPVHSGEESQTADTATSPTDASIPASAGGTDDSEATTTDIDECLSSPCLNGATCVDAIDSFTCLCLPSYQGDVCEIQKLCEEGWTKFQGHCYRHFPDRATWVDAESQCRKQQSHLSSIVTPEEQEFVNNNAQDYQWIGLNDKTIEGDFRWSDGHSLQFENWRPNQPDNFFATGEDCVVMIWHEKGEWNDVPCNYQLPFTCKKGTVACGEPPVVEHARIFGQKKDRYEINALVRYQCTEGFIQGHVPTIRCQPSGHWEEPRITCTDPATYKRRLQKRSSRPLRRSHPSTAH

response (HB-GAM 0 nM, parent: est. 1.2): 0.081 A450
response (HB-GAM 10 nM, parent: est. 0.88): 0.085 A450
response (HB-GAM 20 nM, parent: est. 0.64): 0.085 A450
response (HB-GAM 40 nM, parent: est. 0.43): 0.084 A450
response (HB-GAM 80 nM, parent: est. 0.31): 0.083 A450
response (HB-GAM 160 nM, parent: est. 0.25): 0.083 A450
response (HB-GAM 320 nM, parent: est. 0.23): 0.084 A450
Substance: PTPσ (protein tyrosine phosphatase sigma) N-terminal extracellular part with the three Ig domains, Fc-tagged, wild type (from UniProt B0V2N1) PTPσ mutant (lacks the CS binding site; substitutions not printed)
